Holding throughout (test): FP; FP: PBS + 0.05% Tween20, 5 nM DNA, 1 h, room temperature; SPR: Biacore S200, SA chip, protein 0.1-4500 nM, running buffer not given in material; errors are SD
Holding throughout (details): protein: recombinant; tags: N-terminal His8-linker-His8-TEV, cleaved; label: 3' fluorescein (FAM); hairpin, TTTT loop

One series has as its target T1, IRF4 DBD D106Y (Homo sapiens, UniProt Q15306 20-132, D106Y).
T1 sequence: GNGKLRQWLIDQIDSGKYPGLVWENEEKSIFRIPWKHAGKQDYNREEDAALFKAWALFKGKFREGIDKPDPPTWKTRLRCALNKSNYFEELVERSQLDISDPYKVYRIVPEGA

Another series concerns the target T2, IRF4 DBD T95A (Homo sapiens, UniProt Q15306 20-132, T95A).
T2 sequence: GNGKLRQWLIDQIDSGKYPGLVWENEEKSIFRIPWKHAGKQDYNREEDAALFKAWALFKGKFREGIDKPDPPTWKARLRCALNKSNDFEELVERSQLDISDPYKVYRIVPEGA

The target in a further series is T3, IRF4 DBD C99R (Homo sapiens, UniProt Q15306 20-132, C99R).
T3 sequence: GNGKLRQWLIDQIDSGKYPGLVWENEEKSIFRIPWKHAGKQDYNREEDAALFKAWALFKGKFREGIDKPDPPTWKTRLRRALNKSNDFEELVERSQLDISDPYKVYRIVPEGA

The next series addresses T4, IRF4 DBD K59R (Homo sapiens, UniProt Q15306 20-132, K59R).
T4 sequence: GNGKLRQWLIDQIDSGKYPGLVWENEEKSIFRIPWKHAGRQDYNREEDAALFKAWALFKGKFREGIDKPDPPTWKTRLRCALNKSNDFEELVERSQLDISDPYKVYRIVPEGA

The target of the next series is T5, IRF4 DBD T95R (Homo sapiens, UniProt Q15306 20-132, T95R).
T5 sequence: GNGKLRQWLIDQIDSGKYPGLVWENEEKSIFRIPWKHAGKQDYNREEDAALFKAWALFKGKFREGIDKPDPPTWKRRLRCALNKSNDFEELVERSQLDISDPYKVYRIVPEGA

The target of another series is T6, IRF4 DBD L70V (Homo sapiens, UniProt Q15306 20-132, L70V).
T6 sequence: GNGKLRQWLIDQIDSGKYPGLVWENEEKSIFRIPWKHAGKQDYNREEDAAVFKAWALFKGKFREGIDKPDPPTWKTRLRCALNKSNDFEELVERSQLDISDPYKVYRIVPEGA

A further series deals with T7, IRF4 DBD D117A (Homo sapiens, UniProt Q15306 20-132, D117A).
T7 sequence: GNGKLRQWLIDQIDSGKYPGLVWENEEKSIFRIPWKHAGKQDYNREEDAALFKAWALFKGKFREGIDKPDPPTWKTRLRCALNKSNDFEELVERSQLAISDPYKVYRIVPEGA

The target in the next series is T8, IRF4 DBD K123R (Homo sapiens, UniProt Q15306 20-132, K123R).
T8 sequence: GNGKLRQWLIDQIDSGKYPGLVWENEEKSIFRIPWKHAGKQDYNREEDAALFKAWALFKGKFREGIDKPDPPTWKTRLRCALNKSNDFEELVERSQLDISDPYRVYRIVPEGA

Another series addresses T9, IRF4 DBD S114N (Homo sapiens, UniProt Q15306 20-132, S114N).
T9 sequence: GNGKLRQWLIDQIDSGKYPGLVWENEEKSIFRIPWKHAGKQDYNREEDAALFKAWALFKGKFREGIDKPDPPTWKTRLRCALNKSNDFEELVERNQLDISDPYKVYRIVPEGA

The target of another series is T10, IRF4 DBD T95K (Homo sapiens, UniProt Q15306 20-132, T95K).
T10 sequence: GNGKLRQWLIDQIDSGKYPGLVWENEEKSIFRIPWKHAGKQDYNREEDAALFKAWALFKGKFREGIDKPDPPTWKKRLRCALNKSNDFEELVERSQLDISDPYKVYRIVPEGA

CTTGGTTTCACTTCCTGCGTTTTCGCAGGAAGTGAAACCAAG (structured_DNA) [IRE hairpin (FAM)]: the Kd was 219 ± 261 nM with IRF4 DBD D106Y; 105 ± 59 nM in the series with IRF4 DBD T95A; 279 ± 286 nM with IRF4 DBD C99R; 350 ± 275 nM with IRF4 DBD K59R; 151 ± 72 nM in the series with IRF4 DBD T95R; 127 ± 27 nM with IRF4 DBD L70V. Also, the Kd in the series with IRF4 DBD D117A was 109 ± 31 nM; in the series with IRF4 DBD K123R it was 143 ± 34 nM; in the series with IRF4 DBD S114N, 181 ± 14 nM; with IRF4 DBD T95K it was 298 ± 154 nM.

The record behind these values is article doi:10.1101/2025.03.12.642038, “Structural, biophysical and biological analysis and characterisation of IRF4 DNA-binding domain mutations associated with multiple myeloma”.
